This note sets out measurements from the supplement of paper PMC9112550, “Optimization of the antimicrobial peptide Bac7 by deep mutational scanning” (BMC Biology, 2022).
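Also: peptides expressed intracellularly from a pBAD plasmid library in pooled LB shake-flask culture, induced with 0.3% L-arabinose, DNA abundance read by NGS, three biological replicates, DESeq2 with apeglm shrinkage.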

The subject of this series is Escherichia coli TOP10. Put plainly: shrunken log2 fold change of peptide-encoding DNA abundance (4.5 h post-induction vs induction); higher = less antimicrobial activity (less host growth inhibition). The conditions noted are these: time post-induction: 4.5 h; library: site-saturation at positions 5, 18, 19, 20.
With RRIRIRPPRLPRPRPRPYPKPRP, the “shrunken log2 fold change” value is -0.0684. For RRIRQRPPRLPRPRPRPMVMPRP the value was 0.0852. On to RRIRARPPRLPRPRPRPTMQPRP, for which the “shrunken log2 fold change” value worked out at 0.418. To RRIRPRPPRLPRPRPRPRDWPRP belongs 0.531; to RRIRLRPPRLPRPRPRPDWKPRP, 0.0269. RRIRTRPPRLPRPRPRPIENPRP: the “shrunken log2 fold change” value was 0.0452. Consider RRIRYRPPRLPRPRPRPDNKPRP, for which the “shrunken log2 fold change” value was -0.609. To RRIRMRPPRLPRPRPRPAANPRP belongs -0.00188.

Consider RRIRMRPPRLPRPRPRPEALPRP, for which the “shrunken log2 fold change” value was found to be 3.81. Regarding RRIRKRPPRLPRPRPRPSHEPRP, the “shrunken log2 fold change” value is -0.218.

Consider RRIRKRPPRLPRPRPRPYCKPRP, for which the “shrunken log2 fold change” value was 0.0355. For RRIRARPPRLPRPRPRPRQIPRP, the “shrunken log2 fold change” value came out at 0.313.

In the case of RRIRIRPPRLPRPRPRPDALPRP, the “shrunken log2 fold change” value was -0.206. For the sequence RRIRDRPPRLPRPRPRPTVGPRP, the “shrunken log2 fold change” value was 0.351.

As to RRIRDRPPRLPRPRPRPFMFPRP, the “shrunken log2 fold change” value came out at 0.033. For RRIRRRPPRLPRPRPRPFTVPRP, the “shrunken log2 fold change” value is -0.118. Turning to RRIRKRPPRLPRPRPRPSDHPRP, the “shrunken log2 fold change” value is -0.239. Regarding RRIRGRPPRLPRPRPRPYTHPRP, the “shrunken log2 fold change” value is -0.426. Turning to RRIRRRPPRLPRPRPRPGSFPRP, the “shrunken log2 fold change” value came out at 0.122.

With RRIRFRPPRLPRPRPRPRHVPRP, the “shrunken log2 fold change” value is -0.0276. RRIRMRPPRLPRPRPRPQIKPRP: the “shrunken log2 fold change” value was -0.0128. Turning to RRIRVRPPRLPRPRPRPEQWPRP, the “shrunken log2 fold change” value was 0.149. For the sequence RRIRWRPPRLPRPRPRPANEPRP, the “shrunken log2 fold change” value came to 0.134. Regarding RRIRSRPPRLPRPRPRPFEYPRP, the “shrunken log2 fold change” value was -0.115.

Regarding RRIRFRPPRLPRPRPRPEECPRP, the “shrunken log2 fold change” value is -0.0175. For RRIRERPPRLPRPRPRPNMQPRP, the “shrunken log2 fold change” value was -0.664.

Turning to RRIRNRPPRLPRPRPRPFNDPRP, the “shrunken log2 fold change” value is -0.0288.

Consider RRIRDRPPRLPRPRPRPYKIPRP, for which the “shrunken log2 fold change” value was -1.46. As to RRIRPRPPRLPRPRPRPMHPPRP, the “shrunken log2 fold change” value was found to be 0.324. As for RRIRYRPPRLPRPRPRPSWKPRP, the “shrunken log2 fold change” value was -0.111. Take RRIRLRPPRLPRPRPRPHRAPRP: the “shrunken log2 fold change” value is -0.0697. As to RRIRERPPRLPRPRPRPKTGPRP, the “shrunken log2 fold change” value is -0.0863. RRIRERPPRLPRPRPRPGRNPRP: the “shrunken log2 fold change” value was -0.237. RRIRYRPPRLPRPRPRPLAMPRP: the “shrunken log2 fold change” value is -0.311. In the case of RRIRSRPPRLPRPRPRPTFHPRP, the “shrunken log2 fold change” value was -0.192. In the case of RRIRIRPPRLPRPRPRPYCDPRP, the “shrunken log2 fold change” value was -0.0269. On to RRIRTRPPRLPRPRPRPCMIPRP, for which the “shrunken log2 fold change” value was -0.546.

RRIRKRPPRLPRPRPRPYMFPRP: the “shrunken log2 fold change” value is -0.109. RRIRYRPPRLPRPRPRPDNLPRP: the “shrunken log2 fold change” value was -0.196. Turning to RRIRTRPPRLPRPRPRPVPGPRP, the “shrunken log2 fold change” value was 0.151. For the sequence RRIRCRPPRLPRPRPRPVGNPRP, the “shrunken log2 fold change” value was -0.0972. Take RRIRVRPPRLPRPRPRPHRWPRP: the “shrunken log2 fold change” value was found to be 0.0461.

In the case of RRIRTRPPRLPRPRPRPKECPRP, the “shrunken log2 fold change” value was -0.503. RRIRRRPPRLPRPRPRPQGPPRP: the “shrunken log2 fold change” value came out at 0.206.

Take RRIRGRPPRLPRPRPRPEAYPRP: the “shrunken log2 fold change” value was determined as 0.0504. For RRIRERPPRLPRPRPRPGPDPRP, the “shrunken log2 fold change” value is -0.118. To RRIRQRPPRLPRPRPRPRAWPRP belongs 0.123. As for RRIRHRPPRLPRPRPRPWARPRP, the “shrunken log2 fold change” value was -0.00568.

With RRIRYRPPRLPRPRPRPSAGPRP, the “shrunken log2 fold change” value was -0.165. To RRIRERPPRLPRPRPRPVLMPRP belongs 0.0559; to RRIRCRPPRLPRPRPRPELSPRP, 0.52; to RRIRDRPPRLPRPRPRPTVYPRP, 0.12. For RRIRERPPRLPRPRPRPKDHPRP the value was -0.323; for RRIRRRPPRLPRPRPRPSTKPRP, 0.068; for RRIRFRPPRLPRPRPRPSMSPRP, -0.394. Consider RRIRVRPPRLPRPRPRPVYFPRP, for which the “shrunken log2 fold change” value is -0.334.

For the sequence RRIRSRPPRLPRPRPRPRNVPRP, the “shrunken log2 fold change” value stood at 0.0864.

Regarding RRIRIRPPRLPRPRPRPMAMPRP, the “shrunken log2 fold change” value is -0.024. For RRIRQRPPRLPRPRPRPIKFPRP the value was -0.282; for RRIRNRPPRLPRPRPRPKWAPRP, -0.0431; for RRIRTRPPRLPRPRPRPQCIPRP, -0.247. With RRIRKRPPRLPRPRPRPKEYPRP, the “shrunken log2 fold change” value is 0.191. For RRIRRRPPRLPRPRPRPIAGPRP, the “shrunken log2 fold change” value is -0.12.

Consider RRIRSRPPRLPRPRPRPRTRPRP, for which the “shrunken log2 fold change” value is 0.512. As to RRIRERPPRLPRPRPRPFMLPRP, the “shrunken log2 fold change” value was -0.511. For RRIRDRPPRLPRPRPRPDLKPRP, the “shrunken log2 fold change” value amounted to 0.169.

Take RRIRARPPRLPRPRPRPIGYPRP: the “shrunken log2 fold change” value was -0.0969. For RRIRIRPPRLPRPRPRPWMIPRP the value was -0.0493. Consider RRIRWRPPRLPRPRPRPTFQPRP, for which the “shrunken log2 fold change” value was 0.131. On to RRIRKRPPRLPRPRPRPSWYPRP, for which the “shrunken log2 fold change” value was -0.519. For RRIRQRPPRLPRPRPRPVQPPRP the value was 0.0898; for RRIRGRPPRLPRPRPRPQWQPRP, -0.134; for RRIRLRPPRLPRPRPRPGCYPRP, -0.115. Turning to RRIRQRPPRLPRPRPRPLINPRP, the “shrunken log2 fold change” value is -0.305.

Consider RRIRARPPRLPRPRPRPPMIPRP, for which the “shrunken log2 fold change” value was -0.172. RRIRVRPPRLPRPRPRPDPKPRP: the “shrunken log2 fold change” value is 0.203.

As to RRIRCRPPRLPRPRPRPMCTPRP, the “shrunken log2 fold change” value is -0.098.

For RRIRRRPPRLPRPRPRPTALPRP, the “shrunken log2 fold change” value turned out to be 0.554.

In the case of RRIRLRPPRLPRPRPRPLVYPRP, the “shrunken log2 fold change” value was -0.335.

In the case of RRIRERPPRLPRPRPRPFYKPRP, the “shrunken log2 fold change” value was determined as 0.187. RRIRSRPPRLPRPRPRPDHTPRP: the “shrunken log2 fold change” value was -0.407. As to RRIRTRPPRLPRPRPRPRPMPRP, the “shrunken log2 fold change” value was 0.184. Turning to RRIRERPPRLPRPRPRPPELPRP, the “shrunken log2 fold change” value was determined as 0.102. To RRIRPRPPRLPRPRPRPITFPRP belongs -0.112. With RRIRLRPPRLPRPRPRPYFEPRP, the “shrunken log2 fold change” value was -0.453. For RRIRKRPPRLPRPRPRPQKFPRP, the “shrunken log2 fold change” value is 0.0144. For RRIRVRPPRLPRPRPRPSQDPRP the value was -0.221. On to RRIRVRPPRLPRPRPRPVKAPRP, for which the “shrunken log2 fold change” value stood at 0.0603. For RRIRFRPPRLPRPRPRPYCGPRP, the “shrunken log2 fold change” value was -0.306. For RRIRVRPPRLPRPRPRPYPDPRP the value was -0.293.

For the sequence RRIRMRPPRLPRPRPRPCFKPRP, the “shrunken log2 fold change” value came out at 0.145.
